# According to paper PMC7007264:
# B1: ssDNA EMSA probe (ssDNA)
# DNA: CGGGTGTCGGGGCTGGCTTAACTATGCGGCATCAGAGCAGATTGTACTGAGAGTGCACCATATGCGGTGTGAAATACCGCACAGATGCGT
# Target: Rad51-2A (Saccharomyces cerevisiae, UniProt P25454 1-400, S125A;S375A)
# Test: EMSA
# Chain of Rad51-2A (P25454 whole entry S125A/S375A): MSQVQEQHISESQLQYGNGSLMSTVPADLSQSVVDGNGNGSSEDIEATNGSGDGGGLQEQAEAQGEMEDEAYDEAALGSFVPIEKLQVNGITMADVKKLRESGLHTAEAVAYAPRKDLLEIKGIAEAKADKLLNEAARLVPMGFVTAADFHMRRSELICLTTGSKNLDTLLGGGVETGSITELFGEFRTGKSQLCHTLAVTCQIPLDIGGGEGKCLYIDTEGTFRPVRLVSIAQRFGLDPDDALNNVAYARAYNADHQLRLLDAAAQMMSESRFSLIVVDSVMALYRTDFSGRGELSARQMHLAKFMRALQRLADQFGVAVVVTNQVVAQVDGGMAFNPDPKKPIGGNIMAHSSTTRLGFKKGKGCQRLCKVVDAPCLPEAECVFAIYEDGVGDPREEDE
binder,measurement,value
B1,binding result,no binding
